# Experimental data: patent publication US20190192484A1 (UNIVERSITY OF CHICAGO, published 2019)
# B1: BCL-2-associated death promoter (BAD), endogenous in WT fibroblasts (other, mouse, UniProt Q61337 1-204, looked up)
# chain: MGTPKQPSLAPAHALGLRKSDPGIRSLGSDAGGRRWRPAAQSMFQIPEFEPSEQEDASATDRGLGPSLTEDQPGPYLAPGLLGSNIHQQGRAATNSHHGGAGAMETRSRHSSYPAGTEEDEGMEEELSPFRGRSRSAPPNLWAAQRYGRELRRMSDEFEGSFKGLPRPKSAGTATQMRQSAGWTRIIQSWWDRNLGKGGSTPSQ
# notes: Endogenous protein inside fixed cells (microscopy, proximity ligation assay); also called WT BAD
# Target: Vimentin (endogenous, WT fibroblasts) (mouse, UniProt P20152 2-466)
# Sequence (P20152 2-466 limits assumed): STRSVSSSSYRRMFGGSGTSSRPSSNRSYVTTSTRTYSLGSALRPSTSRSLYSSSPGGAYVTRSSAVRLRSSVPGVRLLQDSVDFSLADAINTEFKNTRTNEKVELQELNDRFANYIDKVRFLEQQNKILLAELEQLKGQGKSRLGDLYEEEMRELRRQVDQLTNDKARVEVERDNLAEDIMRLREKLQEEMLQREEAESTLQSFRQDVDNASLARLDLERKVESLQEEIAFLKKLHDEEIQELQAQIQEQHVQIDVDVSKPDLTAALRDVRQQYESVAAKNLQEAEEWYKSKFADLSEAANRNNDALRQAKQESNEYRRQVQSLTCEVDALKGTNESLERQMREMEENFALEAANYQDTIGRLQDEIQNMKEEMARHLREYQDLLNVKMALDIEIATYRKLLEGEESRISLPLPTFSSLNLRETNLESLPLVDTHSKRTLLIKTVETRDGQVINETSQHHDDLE
# Assay: proximity ligation assay in WT fibroblasts with anti-BAD and anti-Vimentin (FIG. 8F)
binder,measurement,value
B1,binding result,no binding
